From the DeepSol protein solubility set

experiment: soluble on expression in E. coli; label from the status in PepcDB or PDB records

Soluble on expression in E. coli, not soluble:
MGSDKIHHHHHHMIALKELKQYADLHVKTHSFQVINPRQVLQSIERAASEEPTAGGWDWQWVDAANKCLQANAIEDAIQCYNFARFPFPKTSLQQEAADRLTKVFEQAYCREDVQKHRVYYDNQKVTVYAANLHPDLPCLLVLGGIVSIKEQWSVFLQVGKRLGFSVLITECPGVGENQVRYHADSYRMIGQILDTFAGQAKVGDTYIVGMSFGGHLAMKQALHDERIKGITTVGAPLHYFFQDYSQLNVPFITQATLAHVMEEELDHVGRALSRFAFMPKELNKLKIPITYIFSSKDEIIPKSEKSFLLDNIANLTFYEFDDVHGSPNHLPLIQKIIPLSILKHSNSKRYFVRIMLAFLLTYNKWKGRDGKR
MGSDKIHHHHHHMIDKLEFFIALARAQHFGRAAEECGISQPTLSAAIRQLEDQLGVILVQRGSRFQGLTPEGQRVLEWARRIVGDARTMREEMRAARNGLAGHIRLAVIPTALAMVQRLTEPFQAHHPAVTFQVVSRNSLQVLSLLENLEIDAGITYLDNEPLGRVTSVPLYAERYHLIAATGTPLADRESVTWREVSDLRLCLLTADMQNRRIINQHFTEAGVVPRPTLESNSMIVLFSHIRTGQWSSIMPRNVAESFGFPEEIRMVPIVEPQAQHLVGLVATHREPYTPLVSALLHEARRLAAAQVFDRFFLSRNNTAVLT
MGSDKIHHHHHHMIDLDFRKLTIEECLKLSEEEREKLPQLSLETIKRLDPHVKAFISVRENVSVEKKGKFWGIPVAIKDNILTLGMRTTCASRILENYESVFDATVVKKMKEAGFVVVGKANLDEFAMGSSTERSAFFPTRNPWDLERVPGGSSGGSAAAVSAGMVVAALGSDTGGSVRQPASLCGVVGYKPTYGLVSRYGLVAFASSLDQIGPITKTVRDAAILMEIISGRDENDATTVNRKVDFLSEIEEGVSGMKFAVPEEIYEHDIEEGVSERFEEALKLLERLGAKVERVKIPHIKYSVATYYVIAPAEASSNLARFDGVKYGLRIKEKGLREMYMKTRNVGFGEEVRRRIMIGTFTLSAAYYEAYFNKAMKVRRKISDELNEVLSQYDAILTPTSPVTAFKIGEIKDPLTYYLMDIFTIPANLAGLPAISVPFGFSNNLPVGVQVIGRRFADGKVFRIARAIEKNSPYNENGMFPLPEVKA
MGSDKIHHHHHHMIDLKRNSKKIPIEATGLRSRKSSLYEPNQKEDFKISRGRFSNFLTCQRCFYLDRVRGLDPPGTPGWTLNETTDLLLKKEFDYCRQKQIPHRIFASNGLSHVVPFDHPEIDNWRNSLNRGLMHRYKDTGIILTGGVDDIWQDTITEQLIIVDYKSQAKNGRVDKKDYLDDPFHEAYKIQMDFYAYLLSGMGFSVHPTSYFLVCNAKRDEDEFNKTMRFDEYLVPYKWNNDWIESRLDEMVALMNQLEVPESNHSCKNCAYADQYSKIIFSGNTSQKEITQGTLPLF
MGSDKIHHHHHHMIDQLYRKAVLTVAERPQVEQLARQKMWNLAERFVAGESIESAIQAVQALERDGIAGNLDLLGEFIDSPAKCTEFADDVIKLIEAAHAAGIKPYVSIKLSSVGQGKDENGEDLGLTNARRIIAKAKEYGGFICLDMEDHTRVDVTLEQFRTLVGEFGAEHVGTVLQSYLYRSLGDRASLDDLRPNIRMVKGAYLEPATVAYPDKADVDQNYRRLVFQHLKAGNYTNVATHDERIIDDVKRFVLAHGIGKDAFEFQMLYGIRRDLQKQLAAEGYRVRVYLPYGRDWYAYFSRRIAETPRNAAFVVQGMLKG
MGSDKIHHHHHHMIEFAAITSVISKYAPQASQLIIKQAQKNEAVINILHELKLNPTQISDDIDTVYIYALIRYGVFKHEAILNLFREKEIKGCFWDAYSSNTPFKFVENAKKLLNQNSELKMQLINAKINFLAEIEEFGEAFIAVAKQTKSSKYQPYPDWNLDVYSKEFKALIFEKTRLFCGRDFVFKAIQKFFTTQAKGYFSIVGDAGMGKSAIAAKYVLAYKFPCYFNIFAEGRNKPEKFLASIRQQLIKRYSLQNADNTDLRTLLQKASEELKGQKLVIVVDALDEVEQEGNGNLLDLPQNLPNGVYFLLTRRLYNQETKRLTLSPDTPVYELDLTQGDYTALSQEDVKEYIELYLNNDSDLKNWINERHISEDSFTQEIAVKSENNFIYLRYLLPGISEGKYNDLNLKGLPQGLQDYYTTHWNRMGMDKESNEKKVKILYILVERGEPISINMITEILDEEEYEVKSVLNEWVEYVTPKVNVDEHKTYYSIYHRSFLEFLKSQDKLGKGRKLFREVNKSMANYMLKEMA
MGSDKIHHHHHHMIERIYLAKPRGFCAGVVMAIQAVEKAAVREDKPVTVYHSIVHNHTVVERLSEGGRVHFVEDLDAVDALPDSGDTVIFSAHGISPAVRERARSLGLSTIDATCPLVTKVHTEAKKYAREGYTILLIGDSAGHQEVIGTRGEAPENTILVGVLGKTGPGLNDPHAVQVPDPERLVVLTQTTLSVDDTRKTVDILKARFPALVVPPSEDLCYATKNRQDAVKNIAPNVDAFLVLTSTHSSNGMRLLELAEAECGRAYRLETAADLTRLEQNGDLGGVRSVGITSAASTPDDLVQDVVAHFRALNPALEVIEEGEWENIEFREPKKIAPTQELPRTMQ
MGSDKIHHHHHHMIESIQELLQKEAQAVLNIPVTDAYEKAVELIVEQIHRKKGKLVTSGMGKAGQIAMNIATTFCSTGIPSVFLHPSEAQHGDLGILQENDLLLLISNSGKTREIVELTQLAHNLNPGLKFIVITGNPDSPLASESDVCLSTGHPAEVCTLGMTPTTSTTVMTVIGDILVVQTMKRTEFTIEEYSKRHHGGYLGEKSRKLCVK
MGSDKIHHHHHHMIFFNKDEQLENIGNGILDATWAAFPTLARNQIALTWVVYDPPVRVNTGGALTPNAFWDHPVRGFTYRGVERIYPASVVKLFYLVAVNEWLEKGMSQTSKELERALRDMIVDSSNDATSLVVDILSGTTSGPELPTGPFETWKYQRNIVNRYYQSLGWEEMETINVCQKTWGDGPYGRERAFAGELLENRNMLTTNAIARLLHSIVGGVAVSSARSQAMMALLKRPLNDLPTDTEENQVTGFLGGGLPQNAQIWSKAGWTSQVRHDAAYIELPEQRPYLLVVFTEGKAQAKSQAILPFVSQQVADAISSL
MGSDKIHHHHHHMIFLNRYGFPDQSATSRMISSLAMSMAQRGMNVTVVTSREIHNHPGSVLPATETVRGIHIQRLSSGRFGRHNLMRRSIDYLLFQVLAFAWLLRNVRATDTVIVCTDPPLLSVMSSIAIRLKGALMVNWIMDLFPETAIELGFFRKRARWLAPWLTRARNWSLRSPGMVVCPTEKMAEFLFTQGIAKDRVSVLHHWSDGEEIYPVLPEGNSLRKAWGLQDVFVVGYSGNFGRAHDFGTMLAAAKRLEHRPDIRFLLIGGGHQHAAVKTVVQDLGLQNVIFKPLQPVENLAESLSVADVHLVSLLPELEHCIIPSKFYGIMAAGRPTIFIGDPDGEVPRILRAKRCGSNVEIGETDKLTGIIEELCDDPDTTKAMGDAARRLLCTDYSREKAADAWAALIAGLQTVEPSRPHLAQGISP
MGSDKIHHHHHHMIHLSNITKQHGAQVLFRDASFQILPGTRTGLVGPNGAGKTTIFRIITGEEEVDAGEMTCAKKTTVGYFSQDVGEMAGRSALEEVMAGSAETVRLAAELKEMEAAMCEPQSDDEMAALLERYGAAQEEFEHRGGYDLDTRAQTVLTGLGIGPDRFHHPVESFSGGWKMRIALAKILTLKPDVLLLDEPTNHLDVESIIWLEEWLANDFDGALLMTSHDRDFMNRIVTRIIEVANRTVTTYGGNYDFYERERDIRREQLLASHKRQQEMLAKEEEFIARFAARASHAAQVQSRVKKLEKIERIEIPAEERMVRFEFSEPPRSGEDVVVMENLGKVWQTPDGGEKPVFGGVSGIIRRLNKIAVVGVNGAGKSTFLKVLAGQTEPTTGTVTIGANVELGYFSQHAMEVLDPKKTVFETVQEAMPLANIGVIRNLLAAFLFQGDTVDKRVENLSGGEKSRVVLATLLARPVNFLVLDEPTNHLDIRSREILLDALRNFAGTVVIVSHDRHFLRSLVDRVFEVDHGEMRVYEGDYSYYLRKSHELHGLP
MGSDKIHHHHHHMIIELFGPPGAGKTTLLRGLCQGMAKHGINVKTVNGYRLIEYGSAQEDGPEVRHGIGRIGKKIATSGPVLLSTLPKDGVAARLLASIPLRSLTWSWRMKVDIALLCESWRQAQESEGYFIFEEGIIQALCALVVLARTPSIDVVRDCLAFLPRPDLLIQLDAPQETLRRRLMDRHAQQPLLEVLLFELGVDRGLRQADISRDIGKCLRQDGWPLIKVNGAEPHDLDKIITRILEEHETVPV
MGSDKIHHHHHHMIIESRIEKGKPVVGMETTVFVHGLPRKEAIELFRRAKEISREKGFQLAVIGILKGKIVAGMSEEELEAMMREGADKVGTREIPIVVAEGKNAATTVSATIFLSRRIGIEVVVTGGTGGVHPGRVDVSQDLTEMSSSRAVLVSSGIKSILDVEATFEMLETLEIPLVGFRTNEFPLFFSRKSGRRVPRIENVEEVLKIYESMKEMELEKTLMVLNPVPEEYEIPHDEIERLLEKIELEVEGKEVTPFLLKKLVEMTNGRTLKANLALLEENVKLAGEIAVKLKRS
MGSDKIHHHHHHMIINRSCLKEFAEKVHFLPSSLTKSDLLTDPFRLHQENELGIYYSPHNEFINRDASLVIAGITPGFSQMKTAYETAAESLLQGGTLEQMAVDTKIAAGFSGSMRHNLITMLDLCGLPQAFGIQSAAKLFGELRHMLHTTSVIKYPVFIQQKNYTGYKPAITHSPILSTYAFGHFPAELNHVTGPALLIPLGKAAETVCETLIRQHSLQNLICLNGFPHPSGANGHRLKQFSKNKEQLERQIRSFAALVDFAIEKRK
MGSDKIHHHHHHMIISASRRTDIPAFYSQWFFNRIKEGYVLVPNPFNPKMISKVSLHPAVIDCIVFWTKNPAPMIDKLDHLQDYKYYFQFTLNPYGEKLENNLPSVNKRIDIFKRLSDKIGKEKVIWRYDPILTNEEYDVSFHKEAFAQIAYGLKDHTEKCMLGFIDHYQHIRTAVGQFNIQPLRKEEIEEIAVSFRNTINEYPAIQLDTCTSKVDLRHLGIPAGLCIDKELIERITGYPLLAKKDKNQRNVCNCIESIDIGTYESCLNGCIYCYAIKGNYNSVEYNTKKHDRNSPLLIGHPAEDDVVKEREMKSLRNNQYSLF
MGSDKIHHHHHHMIITTALANEIVARAMAIIHHNVNVIDHHGQIIASGERHRIGEQHEVAREVIRTGKRICINNAAEAARFHNVHPGINHPIIYDDRVVMVVGISGDPAAISRYAELAVLTAELLVRQAIEMRETNWRQRLRDTLFCQYLEQGATPAGQEALHRLLELGFDFDTPRVPIVVTVQVEQHQLSDILSTLLREFSQLSGVSDVILLGSHEILILNALSEAQETLLRGIEFVLSNQISHYHIGIGVQADSAPDIREAIRFARSVIEVGSKVQPQRQIYYFREMAMLCLFRVLEDSYMVNFFINNVRQLLEHDSGEVLLDTLSSFIANNAEPGKTSLLLGIHRNTLTYRLQQIKKHIQLDPMVFTDLTQLAVSVHCYRRLNPRQSEWIDSLS
MGSDKIHHHHHHMIKNAVKKIIDMEWFARMMEVLDHRSDNRMTELGMLSQAFEFIKINEVCGDYLEFGLWRGKTFGYAHRMKHRYRRQDMKLWGFDSFQGLPDTGAHPDNIWYKGQFACSRPEFESILKSRGIRSCEYELVEGFYRESLNDATRRRLAGRKAAIVYIDCDLYDSTVEVLDFIQPYLVNGSIVCFDDFYNYKADPEQGEQKALSDFLRKESGICFIPYMAYAPLGKSFICRRT
MGSDKIHHHHHHMIKNQWYVVLSSRELKKGQLIGVTRFGEKLAFWRDSNGKVHCISDICCHRGASISHGKVLSNGERVMCPFHGFEYDSQGRVRTIPANGRNTPVPENFRVKSYPTYELADFIWIWYGDREPEKPPKYFDDITDELVYTEFKEVWNVHYSRAIENQLDPIHLPFVHYNTIGRGNRTVVDGPIVEWKDDEMFYFYVFNRIDDGTPARKPEEMDPKRKSKVYLEFKFPNIWQNHISEKIRVTAAFTPIDDDHTMIYLRFYVGLTGIKFLDKLIAVLGKPFNKIVLHQDKRVVETQIPKRSELRMGENLIPGDAPILEYRKKREALKSMQQNNRVK
